According to article PMC8861093 (2022):

Target: WDR5 (Homo sapiens, UniProt P61964)
Assay: biolayer interferometry

Kd: 460 nM
Binder: LNPHGAARAEVYLR [MLL4Win]
